Data reported in the supplement of paper PMC10567573.

B1: ZNF449 (parent)
chain: RIHSGEEPHKCPECGKRFLRSSDL
B2: PPFIA4 (parent)
chain: VMTLPSDLRKHRRKLLSPVSREEN

Variants of: B1
Experiment: protein stability index of a GFP-peptide fusion (GPS, HEK-293T) (PSI 1-6); higher = more stable
Settings: c terminus: a fixed tail appended
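Also: lentivirally expressed fusions sorted by FACS into six bins by GFP to DsRed ratio, PSI derived from sequencing read proportions per bin multiplied by bin number.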

First: RIHSGEPPHKCPECGKRFLRSSDL [E7P]
Second: RIHSGEHPHKCPECGKRFLRSSDL [E7H]
The protein stability index of the first is lower: 2.95 for the first, 3.45 for the second.

Going from RIHSGETPHKCPECGKRFLRSSDL [E7T] to RIHSGENPHKCPECGKRFLRSSDL [E7N], the protein stability index falls from 3.04 to 2.51.

Going from RIHSGERPHKCPECGKRFLRSSDL [E7R] to RIHSGEKPHKCPECGKRFLRSSDL [E7K], the protein stability index rises from 1.89 to 2.46.

First: RIHSGEAPHKCPECGKRFLRSSDL [E7A]
Second: RIHSGEVPHKCPECGKRFLRSSDL [E7V]
The protein stability index of the first is lower: 2.71 for the first, 2.96 for the second.

Going from RIHSGEIPHKCPECGKRFLRSSDL [E7I] to RIHSGEDPHKCPECGKRFLRSSDL [E7D], the protein stability index rises from 2.68 to 2.82.

Compared with RIHSGEGPHKCPECGKRFLRSSDL [E7G], RIHSGEFPHKCPECGKRFLRSSDL [E7F] is higher in protein stability index: 2.81 for the first, 2.98 for the second.

Compared with RIHSGEQPHKCPECGKRFLRSSDL [E7Q], RIHSGECPHKCPECGKRFLRSSDL [E7C] is higher in protein stability index: 3.26 for the first, 4.79 for the second.

First: RIHSGEYPHKCPECGKRFLRSSDL [E7Y]
Second: RIHSGEMPHKCPECGKRFLRSSDL [E7M]
The protein stability index of the first is lower: 2.71 for the first, 3.22 for the second.

First: RIHSGELPHKCPECGKRFLRSSDL [E7L]
Second: RIHPGEEPHKCPECGKRFLRSSDL [S4P]
The protein stability index of the first is lower: 2.98 for the first, 3.16 for the second.

Compared with RIHRGEEPHKCPECGKRFLRSSDL [S4R], RIHIGEEPHKCPECGKRFLRSSDL [S4I] is higher in protein stability index: 2.54 for the first, 3.07 for the second.

Compared with RIHEGEEPHKCPECGKRFLRSSDL [S4E], RIHKGEEPHKCPECGKRFLRSSDL [S4K] is lower in protein stability index: 3.7 for the first, 3.19 for the second.

Compared with RIHGGEEPHKCPECGKRFLRSSDL [S4G], RIHYGEEPHKCPECGKRFLRSSDL [S4Y] is lower in protein stability index: 3.06 for the first, 2.84 for the second.

Going from RIHQGEEPHKCPECGKRFLRSSDL [S4Q] to RIHWGEEPHKCPECGKRFLRSSDL [S4W], the protein stability index falls from 4.12 to 2.5.

First: RIHAGEEPHKCPECGKRFLRSSDL [S4A]
Second: RIHNGEEPHKCPECGKRFLRSSDL [S4N]
The protein stability index of the first is lower: 3.34 for the first, 4 for the second.

Going from RIHTGEEPHKCPECGKRFLRSSDL [S4T] to RIHVGEEPHKCPECGKRFLRSSDL [S4V], the protein stability index falls from 3.53 to 2.44.

First: RIHMGEEPHKCPECGKRFLRSSDL [S4M]
Second: RIHLGEEPHKCPECGKRFLRSSDL [S4L]
The protein stability index of the first is lower: 2.55 for the first, 3.19 for the second.

Compared with RIHDGEEPHKCPECGKRFLRSSDL [S4D], RIHHGEEPHKCPECGKRFLRSSDL [S4H] is lower in protein stability index: 3.56 for the first, 3.18 for the second.

First: RIHFGEEPHKCPECGKRFLRSSDL [S4F]
Second: RIHSGLEPHKCPECGKRFLRSSDL [E6L]
The protein stability index of the first is lower: 2.3 for the first, 2.92 for the second.

Compared with RIHSGREPHKCPECGKRFLRSSDL [E6R], RIHSGNEPHKCPECGKRFLRSSDL [E6N] is lower in protein stability index: 3.24 for the first, 3.08 for the second.

Going from RIHSGVEPHKCPECGKRFLRSSDL [E6V] to RIHSGKEPHKCPECGKRFLRSSDL [E6K], the protein stability index rises from 2.28 to 2.88.

Compared with RIHSGYEPHKCPECGKRFLRSSDL [E6Y], RIHSGQEPHKCPECGKRFLRSSDL [E6Q] is higher in protein stability index: 2.27 for the first, 3.1 for the second.

First: RIHSGIEPHKCPECGKRFLRSSDL [E6I]
Second: RIHSGSEPHKCPECGKRFLRSSDL [E6S]
The protein stability index of the first is higher: 3.09 for the first, 1.79 for the second.

Going from RIHSGHEPHKCPECGKRFLRSSDL [E6H] to RIHSGGEPHKCPECGKRFLRSSDL [E6G], the protein stability index rises from 2.79 to 3.23.

Compared with RIHSGFEPHKCPECGKRFLRSSDL [E6F], RIHSGTEPHKCPECGKRFLRSSDL [E6T] is lower in protein stability index: 2.95 for the first, 2.71 for the second.

Compared with RIHSGAEPHKCPECGKRFLRSSDL [E6A], RIHSGDEPHKCPECGKRFLRSSDL [E6D] is higher in protein stability index: 3.24 for the first, 3.25 for the second.

First: RIHSGPEPHKCPECGKRFLRSSDL [E6P]
Second: RIHSGWEPHKCPECGKRFLRSSDL [E6W]
The protein stability index of the first is higher: 3.69 for the first, 2.08 for the second.

For RIHSGMEPHKCPECGKRFLRSSDL [E6M], the protein stability index was 2.57.

Variants of: B2
Experiment: as above
Settings: c terminus: a fixed tail appended

Going from VMTLPSDLRKHRRKLLSPVSRYEN [E22Y] to VMTLPSDLRKHRRKLLSPVSRVEN [E22V], the protein stability index rises from 2.93 to 3.86.

First: VMTLPSDLRKHRRKLLSPVSRWEN [E22W]
Second: VMTLPSDLRKHRRKLLSPVSREEG [N24G]
The protein stability index of the first is lower: 2.23 for the first, 3.23 for the second.

Compared with VMTLPSDLRKHRRKLLSPVSREEK [N24K], VMTLPSDLRKHRRKLLSPVSREES [N24S] is lower in protein stability index: 4.04 for the first, 3.91 for the second.

First: VMTLPSDLRKHRRKLLSPVSREET [N24T]
Second: VMTLPSDLRKHRRKLLSPVSREEF [N24F]
The protein stability index of the first is higher: 3.73 for the first, 2.44 for the second.

First: VMTLPSDLRKHRRKLLSPVSREEV [N24V]
Second: VMTLPSDLRKHRRKLLSPVSREEE [N24E]
The protein stability index of the first is lower: 3.27 for the first, 4.31 for the second.

Going from VMTLPSDLRKHRRKLLSPVSREEY [N24Y] to VMTLPSDLRKHRRKLLSPVSREEH [N24H], the protein stability index rises from 3.02 to 3.88.

Compared with VMTLPSDLRKHRRKLLSPVSREEL [N24L], VMTLPSDLRKHRRKLLSPVSREEP [N24P] is higher in protein stability index: 2.94 for the first, 3.45 for the second.

First: VMTLPSDLRKHRRKLLSPVSREEA [N24A]
Second: VMTLPSDLRKHRRKLLSPVSREED [N24D]
The protein stability index of the first is lower: 4.02 for the first, 4.33 for the second.

Going from VMTLPSDLRKHRRKLLSPVSREEI [N24I] to VMTLPSDLRKHRRKLLSPVSREEM [N24M], the protein stability index falls from 3.34 to 3.07.

Compared with VMTLPSDLRKHRRKLLSPVSREEW [N24W], VMTLPSDLRKHRRKLLSPVSREEC [N24C] is higher in protein stability index: 2.99 for the first, 3.33 for the second.

First: VMTLPSDLRKHRRKLLSPVSREER [N24R]
Second: VMTLPSDLRKHRRKLLSPVSREEQ [N24Q]
The protein stability index of the first is lower: 3.73 for the first, 4.05 for the second.

First: VMTLPSDLRKHRRKLLSPVSREVN [E23V]
Second: VMTLPSDLRKHRRKLLSPVSRENN [E23N]
The protein stability index of the first is lower: 3.1 for the first, 3.14 for the second.

First: VMTLPSDLRKHRRKLLSPVSREYN [E23Y]
Second: VMTLPSDLRKHRRKLLSPVSREDN [E23D]
The protein stability index of the first is lower: 2.96 for the first, 3.52 for the second.

Going from VMTLPSDLRKHRRKLLSPVSRETN [E23T] to VMTLPSDLRKHRRKLLSPVSREWN [E23W], the protein stability index falls from 3.04 to 2.44.

Compared with VMTLPSDLRKHRRKLLSPVSREIN [E23I], VMTLPSDLRKHRRKLLSPVSREKN [E23K] is higher in protein stability index: 3.15 for the first, 3.72 for the second.

First: VMTLPSDLRKHRRKLLSPVSREQN [E23Q]
Second: VMTLPSDLRKHRRKLLSPVSRELN [E23L]
The protein stability index of the first is lower: 2.96 for the first, 3.4 for the second.

First: VMTLPSDLRKHRRKLLSPVSREFN [E23F]
Second: VMTLPSDLRKHRRKLLSPVSRECN [E23C]
The protein stability index of the first is lower: 2.59 for the first, 2.88 for the second.

Going from VMTLPSDLRKHRRKLLSPVSRERN [E23R] to VMTLPSDLRKHRRKLLSPVSREGN [E23G], the protein stability index falls from 3.06 to 2.94.

First: VMTLPSDLRKHRRKLLSPVSRESN [E23S]
Second: VMTLPSDLRKHRRKLLSPVSREPN [E23P]
The protein stability index of the first is higher: 3.93 for the first, 3.5 for the second.

Going from VMTLPSDLRKHRRKLLSPVSREHN [E23H] to VMTLPSDLRKHRRKLLSPVSREMN [E23M], the protein stability index falls from 3.41 to 3.29.

With VMTLPSDLRKHRRKLLSPVSREAN [E23A] the protein stability index was 3.04.
